Results published in publication PMC3390916 (Chembiochem, 2011).

Target: growth factor receptor-bound protein 2 (Grb2), recombinant (human, UniProt P62993 1-217)
Assay: SPR

Kd: 7.5 ± 5.7 mM
B1: SH3-binding peptide (YEVPPPVPPRRR) (peptide)
peptide: YEVPPPVPPRRRGSC
